In assay [1] the target is human V2 receptor (human) (UniProt P30518). Kind of assay: cell-based or functional assay.
Assay [2] addresses human V1b receptor (human) (UniProt P47901). Kind of assay: cell-based or functional assay.

human V1b receptor (human), sequence (P47901 whole entry): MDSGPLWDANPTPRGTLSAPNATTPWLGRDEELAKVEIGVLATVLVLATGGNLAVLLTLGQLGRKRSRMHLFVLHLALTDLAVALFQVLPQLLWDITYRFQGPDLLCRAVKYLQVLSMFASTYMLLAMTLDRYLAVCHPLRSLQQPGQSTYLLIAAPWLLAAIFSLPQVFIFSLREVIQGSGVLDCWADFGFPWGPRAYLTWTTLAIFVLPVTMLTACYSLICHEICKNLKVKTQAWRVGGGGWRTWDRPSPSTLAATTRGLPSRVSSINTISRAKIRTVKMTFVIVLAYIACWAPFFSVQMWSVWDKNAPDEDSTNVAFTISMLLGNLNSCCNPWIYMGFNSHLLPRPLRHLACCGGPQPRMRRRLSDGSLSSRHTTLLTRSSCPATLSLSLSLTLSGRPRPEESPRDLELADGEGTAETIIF

In assay [1], [Val4]dDAVP (peptide) registered a % Efficacy hV2-R of 89%.

In assay [2], “Desmopressin, [1-deamino, 8-D-arginine]-vasopressin (peptide)” had a % Efficacy hV1b-R of 100%. The % Efficacy hV2-R in assay [1] stood at 100%.

With [Val4]dDAVP (peptide; unit assumed), the EC50 hV2-R in assay [1] amounted to 0.05 nM.

In turn, “Arginine Vasopressin (peptide; unit assumed)” yielded an EC50 hV2-R in assay [1] of 0.04 nM.

For the origin of these results see US20150307555A1.
